# Results as given in patent US20260176365A1 (SYNTHEKINE, published 2026).
# Substitutions are numbered along the chain they refer to.
# B1: mgp130_VHH22 (VHH)
# VHH: QVQLQESGGGLVQPGGSLRLSCAVSGFTFSNYAMKWVRQAPGKGLEWVSSISGGGGATYYADSVKGRFTISRDNTKNTLYLQMNSLKTEDTAVYYCAAQNLDYRGQGTQVTVSS
# notes: As periplasmic extract of the phage clone; also called anti-mouse gp130 VHH; not shown: HA/His tag of the pMECS phagemid
# B2: mgp130_VHH48 (VHH)
# VHH: B1 VHH with G10A, V24A, N31Y, K76N, N77D
# notes: as for B1
# B3: mgp130_VHH30 (VHH)
# VHH: QVQLQESGGGLVQPGGSLRLSCAASGFTFSSYAMSWVRQAPGKGLEWVSAINSGGGSTYYADSVKGRFTISRDNAKNTLYLQLNSLKTEDTAMYYCAKHVTGDYDPSLRYEYNYWSQGTQVTVSS
# notes: as for B1
# B4: mgp130_VHH29 (VHH)
# VHH: B3 VHH with G56A, Y95C, Y114C, S116G, Q117P
# notes: as for B1
# B5: mgp130_VHH28 (VHH)
# VHH: B3 VHH with N77S, A97T
# notes: as for B1
# B6: mgp130_VHH35 (VHH)
# VHH: B3 VHH with V100I, S116G
# notes: as for B1
# B7: mgp130_VHH16 (VHH)
# VHH: B3 VHH with S30R, S31N, L83M, T88P
# notes: as for B1
# B8: mgp130_VHH18 (VHH)
# VHH: B3 VHH with L11S, P14A, G66A, E111D, S116G
# notes: as for B1
# B9: mgp130_VHH34 (VHH)
# VHH: B3 VHH with S30R, G66A, S116G
# notes: as for B1
# B10: mgp130_VHH17 (VHH)
# VHH: B3 VHH with S30R, S31N, N113A
# notes: as for B1
# B11: mgp130_VHH42 (VHH)
# VHH: B3 VHH with E111G, Y114V
# notes: as for B1
# B12: mgp130_VHH4 (VHH)
# VHH: B3 VHH with G56A, S57G, A61T, Y110H, E111G, Y114V
# notes: as for B1
# B13: mgp130_VHH7 (VHH)
# VHH: B3 VHH with G16E, G56A, S57G, A61T, E111G, Y114V
# notes: as for B1
# B14: mgp130_VHH43 (VHH)
# VHH: B3 VHH with S53L, G56D, S57T, A61T, N113G
# notes: as for B1
# B15: mgp130_VHH46 (VHH)
# VHH: B3 VHH with Y95C, V100I, Y114C, S116G
# notes: as for B1
# B16: mgp130_VHH11 (VHH)
# VHH: B3 VHH with S30R, S31N, A97T
# notes: as for B1
# B17: mgp130_VHH12 (VHH)
# VHH: B3 VHH with Y95C, E111G, Y114C, S116G, Q117P
# notes: as for B1
# B18: mgp130_VHH10 (VHH)
# VHH: B3 VHH with A23T, S30R, S31N, Q82R, N84H
# notes: as for B1
# B19: mgp130_VHH33 (VHH)
# VHH: B3 VHH with L79M, T101A, Y112W, N113H, Y114V, S116G
# notes: as for B1
# B20: mgp130_VHH20 (VHH)
# VHH: B3 VHH with M34V, A50T, A97T, Y114V
# notes: as for B1
# B21: mgp130_VHH38 (VHH)
# VHH: QVQLQESGGGSVQAGGFLRLSCAFSGYTGCMGWFRQGPGQEREGVASINDGGSLTYADSVKGRFTISKDNAKKTLDLQMNTLKPEDTAMYYCAASLSYCLNPTLRVDGYNYWGQGTQVTVSS
# notes: as for B1
# B22: mgp130_VHH3 (VHH)
# VHH: QVQLQESGGGLVQPGGSLRLSCAASGFTLSTYWIYWVRQAPGKGPEWVSTVSRSGGTTYYADSVNGRFTISRDNAKNTVYLQMNNLKPEDAAVYYCLASVSNLGWPPVRAPSPTGQGTQVTVSS
# notes: as for B1
# B23: mgp130_VHH40 (VHH)
# VHH: QVQLQESGGGLVQPGGSLRLSCAASGFTFSNYAMSWVRQAPGKGVEWVSAINSGGSVFYADSVKGRFTISRDNAKNTLYLQLSSLKTEDTAMYYCAKHVTGDYDPSLRYGYNVWSQGTQVTVSS
# notes: as for B1
# B24: mgp130_VHH23 (VHH)
# VHH: QVQLQESGGGLVQPGGSLRLSCTASGFTFNSAHMKWERQPPGKGLEWVSFITPGGASTGYADSVKGRFTISRDNAKNTLYLQMNNLKTEDTAVYYCATGGLRGQGTQVTVSS
# notes: as for B1
# B25: mgp130_VHH44 (VHH)
# VHH: B24 VHH with M34L, P53N, N74D
# notes: as for B1
# B26: mgp130_VHH1 (VHH)
# VHH: QVQLQESGGGSVQAGGSLRLSCVISGFTYRQTFMGWFRQVLGKEREGVAAISTGGGSTVYADSVKGRFTISQDSSKNTVYLEMNGLKLEDTGMYYCAASTVITSVSINRGLYQYWGQGTQVTVSS
# notes: as for B1
# B27: mgp130_VHH39 (VHH)
# VHH: B26 VHH with F27L, R30K, L41P, S74N, G110Y, Y114W
# notes: as for B1
# B28: mgp130_VHH27 (VHH)
# VHH: B26 VHH with L20V, L41P
# notes: as for B1
# B29: mgp130_VHH14 (VHH)
# VHH: B26 VHH with R30K, L41P
# notes: as for B1
# B30: mgp130_VHH9 (VHH)
# VHH: B26 VHH with V23G, Q31P, T58S, I70V
# notes: as for B1
# B31: mgp130_VHH19 (VHH)
# VHH: B26 VHH with V23G, Q31P, T58S, I70V, G110A
# notes: as for B1
# B32: mgp130_VHH31 (VHH)
# VHH: B26 VHH with L41V, N77D, V105E, G110N
# notes: as for B1
# B33: mgp130_VHH26 (VHH)
# VHH: B26 VHH with T28V, R30K, L41P
# notes: as for B1
# B34: mgp130_VHH2 (VHH)
# VHH: B26 VHH with V23A, L41V, N77D, V105E, G110N
# notes: as for B1
# B35: mgp130_VHH41 (VHH)
# VHH: B26 VHH with V23G, Q31P, N77D, V105E, G110N
# notes: as for B1
# B36: mgp130_VHH24 (VHH)
# VHH: B26 VHH with Q31P, S52T, V59L, S99T, G110N
# notes: as for B1
# B37: mgp130_VHH49 (VHH)
# VHH: B26 VHH with R30K, L41P, D73E, S106T
# notes: as for B1
# B38: mgp130_VHH21 (VHH)
# VHH: B26 VHH with L20V, V23Q, L41P, V105P, G110N
# notes: as for B1
# B39: mgp130_VHH32 (VHH)
# VHH: B26 VHH with L20V, I24V, L41P, G110N
# notes: as for B1
# B40: mgp130_VHH15 (VHH)
# VHH: B26 VHH with L41V, N77D, V105E, N108Y, G110N
# notes: as for B1
# B41: mgp130_VHH47 (VHH)
# VHH: B26 VHH with R30K, L41P, S57N, S106T, I107V
# notes: as for B1
# B42: mgp130_VHH37 (VHH)
# VHH: B26 VHH with S11P, L41P, V105E
# notes: as for B1
# B43: mgp130_VHH5 (VHH)
# VHH: B26 VHH with L41V, V59I, N77D, V105E, G110N
# notes: as for B1
# B44: mgp130_VHH25 (VHH)
# VHH: B26 VHH with R30K, L41P, S106T
# notes: as for B1
# B45: mgp130_VHH8 (VHH)
# VHH: B26 VHH with Q31P, S52T, S99T, G110N
# notes: as for B1
# B46: mgp130_VHH45 (VHH)
# VHH: B26 VHH with L20V, L41P, V59I, D62N
# notes: as for B1
# B47: mgp130_VHH36 (VHH)
# VHH: B26 VHH with L41V, T58M, N77D, V105E, G110N
# notes: as for B1
# Target: T1, mgp130 ECD antigen (mouse, UniProt Q00560 23-617)
# T1 construct: Antigen of biopanning and PE-ELISA; The immunogen was an ECD-human IgG1 hinge-Fc fusion; also called ECD of mouse gp130; ngp130 ECD antigen (so in the source)
# T1 sequence: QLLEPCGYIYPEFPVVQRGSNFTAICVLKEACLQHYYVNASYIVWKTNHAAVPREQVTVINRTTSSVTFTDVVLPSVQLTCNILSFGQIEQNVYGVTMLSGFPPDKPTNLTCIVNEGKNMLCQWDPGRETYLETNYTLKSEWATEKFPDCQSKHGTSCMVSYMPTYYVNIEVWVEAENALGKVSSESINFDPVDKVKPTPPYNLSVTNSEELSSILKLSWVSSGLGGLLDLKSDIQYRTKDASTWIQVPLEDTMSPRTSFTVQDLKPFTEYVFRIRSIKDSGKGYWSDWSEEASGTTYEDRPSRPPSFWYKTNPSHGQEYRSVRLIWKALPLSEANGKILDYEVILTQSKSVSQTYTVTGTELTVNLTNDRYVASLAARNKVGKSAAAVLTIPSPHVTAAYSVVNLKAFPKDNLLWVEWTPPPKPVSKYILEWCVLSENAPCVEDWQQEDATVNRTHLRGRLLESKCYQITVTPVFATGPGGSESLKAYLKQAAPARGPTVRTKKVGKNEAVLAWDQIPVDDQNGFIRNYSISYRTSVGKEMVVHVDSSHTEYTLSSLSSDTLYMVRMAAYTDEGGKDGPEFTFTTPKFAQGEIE
# Assay: periplasmic extract ELISA (PE-ELISA) of phage clones
row,Binder,binding result
1,B1,binds
2,B2,binds
3,B3,binds
4,B4,binds
5,B5,binds
6,B6,binds
7,B7,binds
8,B8,binds
9,B9,binds
10,B10,binds
11,B11,binds
12,B12,binds
13,B13,binds
14,B14,binds
15,B15,binds
16,B16,binds
17,B17,binds
18,B18,binds
19,B19,binds
20,B20,binds
21,B21,binds
22,B22,binds
23,B23,binds
24,B24,binds

row,Binder,binding result
1,B25,binds
2,B26,binds
3,B27,binds
4,B28,binds
5,B29,binds
6,B30,binds
7,B31,binds
8,B32,binds
9,B33,binds
10,B34,binds
11,B35,binds
12,B36,binds
13,B37,binds
14,B38,binds
15,B39,binds
16,B40,binds
17,B41,binds
18,B42,binds
19,B43,binds
20,B44,binds
21,B45,binds
22,B46,binds
23,B47,binds
